# Measurements: the DeepSol protein solubility set
# Test: soluble on expression in E. coli; label from the status in PepcDB or PDB records
row,Sequence,soluble on expression in E. coli
1,MGSDKIHHHHHHMKQLILFLLCLSTWTAQAKIYNVKDYGAKADGTTIDSPAINRAIEEAASQGGGTVYFPAGEYACYSIRLASHIHLYIEQGARIVGAFPSATEGYDPAEPNEHTQFQDFGHSHWKNSLIWGIGLEDITISGPGLIYGKGLTREESRLPGVGNKAISLKLCKNVTLKDFSLLHCGHFGLLATGVDNLSILNVKVDTNRDGFDIDCCKNVRISHCTVNAPWDDAIVLKASYGLGYFKDTENVTISDCFVSGYDRGSVLDCTWQRDEPQAPDHGFVTGRIKLGTESSGGFKNIAITNCIFERCRGLALETVDGGKLEDIVISNITMRDIVNAPIFLRLGARMRSPQGTPVGTMKRILISHVNVFNADSRYSSIISGIPGALIEDVTLSDIHIYHQGGYTEADGLLTPPEQEKVYPEPWMFGTIPAKGFYIRHARNITLDNVNFHYEKADGRPLFVTDDASDIRYRNITVDGKEFNTAN,not soluble
2,MEQPTRPGFATRRRTQLFDALVDLILVEGFAHLTLDEIANRLRCSKSTLYTLAGSKEQLVRAATVHFFRRATDDVESHIEPIAGARERITAYLSAVGTALSAASDQFMADLDAFPPAREVYERNTQFAAGRVQELITEGVAGGDFRDVHAAFAADLAATMMVRIQQRGVRDSTGLDDAHAYAELAAILTGGISA,not soluble
3,MQEKQLKTIQNKIASWIKEIESAFIDELFSKIGPSKMLRSKLMLALLNEKTDAILLDKAFNLCAIVEMIQTASLLHDDVIDKAAMRRKLPSINALFGNFNAVMLGDVFYSKAFFELSKMGESIAKSLSNAVLRLSRGEIEDVFVGGSFNSDKQKYWRILEDKTAHFIEASLKSMAILLNKDAKMYADFGLNFGMAFQIIDDLLDITQDAKTLGKPNFSDFKEGKTTLPYLLLYEKLNQRDQGLLISYFKQDSHEIIEWTKEKFKQYGTIEETLKIAQVYSKKALEAIKGENNLILEKLAQDVIYRTF,not soluble
4,MGSDKIHHHHHHMRITEMADRVSRTGIGKLAGASHQLHTLNTNERDNSAMAETSIEWTDATWNPVAGCTILTAGCTNCYAMRMAARLEAMGTEKYQGLTRKTGGRAKWTGKVVTDPKSLAIPATWSKPRRVFVNSMSDLFHVDVPADFIRQVWTVMEETPRHTYQILTKRPEVMASVLTRGEFPVLSNVWLGTSVEDSRVLSRLDDLRRVPASIRFVSLEPLIGSVAGANLTDINWAIVGGESGPGARDMDPRWVDEIEAMCRRSGTAFFFKQWGGRNKKATGRTLNGRTYDEMPAAI,not soluble
5,MSGLSMRNPERRIETNPFDVDAWNLLLREHQSRPIDQERDFYESLVKQFPNSGRYWKAYIEHELRSKNFENVEKLFSRCLVSVLNIDLWKCYIHYVFETKGQRDQYREEMAKAYDFALEKVGMDVQAYSIFTEYIAFLKKVPAVGQYAENQRITAVRKIYQKALATPMHNLELIWNDYCTYEKAINITLAEKLIAERGKEYQNARRVEKDLQQMTRGLNRQAVSVPPKGTATEFKQVELWKNLIAWEKTNPLQTEEYGQHARRVVYTYEQSLLCLGYYPDIWYEAAMFLQEASHTLDEKGDVKMAQVLKLETISLYERAITGLMKESKLLYFAYADFQEEHKQFEAVKNIYDRLLGIEHINPTLTYVQLMRFIRRSEGPNNARLVFKRAREDKRTGYQVFVAAALLEYNCMKDKEVAIRVFKLGLKKYENEPEFGLAYADFLSNLNEDNNTRVVFERILTSSKLPADKSIRIWDRFLDFESCVGDLASILKVEKRRKTAYEEAQKDQTMNHSMLVIDRYKFMDLMPCSGEQLKLIGYNALKGTESIAGPSFVGSKNVPTHGPQAASAIMGGAGGHADVARYGFPRPDISQMIPFKPRVNCTASFHPVPGGVFPPPQSVAHLMSLLPPPTCFIGPFINVELLCNMINNMQLPNVSYPKSEDNMLGPMLEQDVKKDMYQLLATTSDPSAVVRSSALSDLKRKRGDSDDEEDYSHLGAVIGSLGSRDAYKRRMNKKNE,not soluble
6,MTIFQFPQDFMWGTATAAYQIEGAYQEDGRGLSIWDTFAHTPGKVFNGDNGNVACDSYHRYEEDIRLMKELGIRTYRFSVSWPRIFPNGDGEVNQEGLDYYHRVVDLLNDNGIEPFCTLYHWDLPQALQDAGGWGNRRTIQAFVQFAETMFREFHGKIQHWLTFNEPWCIAFLSNMLGVHAPGLTNLQTAIDVGHHLLVAHGLSVRRFRELGTSGQIGIAPNVSWAVPYSTSEEDKAACARTISLHSDWFLQPIYQGSYPQFLVDWFAEQGATVPIQDGDMDIIGEPIDMIGINYYSMSVNRFNPEAGFLQSEEINMGLPVTDIGWPVESRGLYEVLHYLQKYGNIDIYITENGACINDEVVNGKVQDDRRISYMQQHLVQVHRTIHDGLHVKGYMAWSLLDNFEWAEGYNMRFGMIHVDFRTQVRTPKESYYWYRNVVSNNWLETRR,soluble
7,MKSAELKYLDFEDFTKLIALAKEKINPIYSSSFMIYIAAMTGMRFSELLGLTWDNVDFEKGQIYVKRTWDIYKNNFAPTKNDQSVRFLAIDSSTMQVMINYKEQQEKLLKRLEIEPEHPFVFYNIKNGLITNNSLNKQLRNMCKKLGFKKIITCHGLRHTHASTMLYKGINILYVSKRLGHSSLNVTMSVYSHILKELEEKDNENIKKIFSEINDELEHHHHHH,soluble
8,KREPALNPNEYKKFMLREKQIINHNTRLFRFNLHHPEDVVGLPIGQHMSVKATVDGKEIYRPYTPVSSDDEKGYFDLIIKVYEKGQMSQYIDHLNPGDFLQVRGPKGQFDYKPNMVKEMGMIAGGTGITPMLQVARAIIKNPKEKTIINLIFANVNEDDILLRTELDDMAKKYSNFKVYYVLNNPPAGWTGGVGFVSADMIKQHFSPPSSDIKVMMCGPPMMNKAMQGHLETLGYTPEQWFIF,soluble
9,MKPFVPKLVYFEPEALSYPLGQELYEKFTQMGIEIRETTSHNQVRGIPGETELARYRNAKSTLVVGVRRTLKFDSSKPSAEYAIPLATGCMGHCHYCYLQTTLGSKPYIRVYVNLDDIFAQAQKYIDERAPEITRFEAACTSDIVGIDHLTHSLKKAIEFIGATDYGRLRFVTKYEHVDHLLDAKHNGKTRFRFSVNSRYVINHFEPGTSSFDARLQAARKVAGAGYKLGFVVAPIYRHDGWEQGYFELFQELARQLEGVDLSDLTFELIQHRFTKPAKRVIEQRYPKTKLDLDESKRKYKWGRYGIGKYVYRDKEARELEETMCSYIARFFPSAQVQYFT,not soluble
10,VIVAGARTPIGKLMGSLKDFSASELGAIAIKGALEKANVPASLVEYVIMGQVLTAGAGQMPARQAAVAAGIGWDVPALTINKMCLSGIDAIALADQLIRAREFDVVVAGGQESMTKAPHLLMNSRSGYKYGDVTVLDHMAYDGLHDVFTDQPMGALTEQRNDVDMFTRSEQDEYAAASHQKAAAAWKDGVFADEVIPVNIPQRTGDPLQFTEDEGIRANTTAAALAGLKPAFRGDGTITAGSASQISDGAAAVVVMNQEKAQELGLTWLAEIGAHGVVAGPDSTLQSQPANAINKALDREGISVDQLDVVEINEAFAAVALASIRELGLNPQIVNVNGGAIAVGHPLGMSGTRITLHAALQLARRGSGVGVAALCGAGGQGDALILRAG,not soluble
11,MSLTAYLHIGTTNTGNQEKQGFLMQNEEKLLQKAYIYPKSLRVANRHWALVDMVLELVQKEDILKKESVLSHITNERLLRAIENFKSESALHKDKKFIFSAEGIVWDFSTKKHVEILEKIMRELGFTQIYIIVYFRDTLGYLNSHCSQDHKNNMGYYSADFAPQDHPRKYIFDYEWICKTHAEVFGEENLIVRLLREDYVGGTLLKDFVYHLGLEWDESFVLKQTKNESFNLLGMELMSRLNQKDLKQDNLNSLLFMARRKFEGSKEKRLKFAVQKDIAKAYVDYFASSLEWVKNKYFPHKNSLFTPVNWEEYEQNYTLTHMLSKDWDDVADFIAQIIVSKNEIISSLKEQLELAREGHHHHHH,soluble
12,MDVEKLNLDNIISRLLEVRGSKPGKNVQLTESEIKGLCQKSREIFLSQPILLELEAPLKICGDVHGQYYDLLRLFEYGGFPPESNYLFLGDYVDRGKQSLETICLLLAYKIKYPENFFLLRGNHECASINRIYGFYDECKRRYNIKLWKTFTDCFNCLPVAAIIDEKIFCCHGGLSPDLQSMEQIRRIMRPTDVPDQGLLCDLLWSDPDKDVTGWGENDRGVSFTFGPEVVAKFLHKHDLDLICRAHQVVEDGYEFFAKRQLVTLFSAPNYCGEFDNAGSMMTVDETLMCSFQILKPADKKKYPYGAGGVGSNRPVTPPRNAPAAQPKKGAKK,not soluble
13,MSRDARWKALLELLVERGRLDVEEAATELEVSAATIRRDFDRLAEQQMLVRTRGGAVVHGVSYELPLRYKTARRASEKQRVAQAVAALVAPGEAVGLTGGTTTTEVARALAVRADLASGTPALTVVTNALNIANELAVRPQFKIVVTGGVARAQSYELIGPLADGVLGQVTLDVAVLGVVAFDVAHGAAAHDEAEAAINRLLCERAERVVVAADSSKLGRRAFARICATESVDTLVTDGAADPELVGRFEEAGVRVVTALEHHHHHH,not soluble
14,MGSDKIHHHHHHMQFGNHPYYANELMLSLDEASGMVGEDARVAEFIRPLYGSRESISGTPRTCLWITDENLALAQEIPAVWARVEKVRKDRKTKTKDVQAKKLVETPWRFRDQYEAESSLLVVPIVSSENRPYLPVVLLSKEAIVHNKAFALYDAPLWNFALIVSKMHLVWVAAVCVRLEMRYSYSNTLGWNTFPVPTLTEQNKADLTRCAEDILLARESHYPATIADLYGPDNMPDDLLRAHERNDEVLERIYIGRRFRNDTERLEKLFDLYTKMTAGQGKPKKKAKK,not soluble
15,MGSDKIHHHHHHMATMMMNDMAARGLRVGLLTWDPEDATAHYPMDPAITWMKLAMGEASQRAGWGLRLRRQRAIRRLARGFRPDVVIGFQAGAFIALRTALVGLGIPMIAAERNAPDLYDFLRQGVRARRMTELALATASRITVQLPSYRPRYPAFLRRRIVDIPNPVPALAEPPYPNEAADPPRLILNMGRLSYQKNQAFLLRAFARVAPTHPEWTLAFVGDGDAGATLKALCHELDLDDRVLFPGATRDVGAWYARSAFLAFPSLWEGFPNALVEAFAHGLPAVGLRTTSGVNELIVEGETGLLSAPDEGAFAEALARMIRDDEARREMGRKAARSILAYDPKAIFDRWEALFRAVAKRRSAP,not soluble
16,MGSDKIHHHHHHMVRQRMTGKERREQLISIGRAVFAERGFDGASVEEIAARANVSKPVVYEHFGGKEGLYAVVIDREMVKLEAMITGSLQHGRSRYRIEQAVLALLTYVEDETDGFLILVRDMRPGERRSYGTLLNDATTQVSHILGNAFTRSGLNAEYANLYGQALVGMVSMTAQWWLDERTPPKEEVAAHIVNLCWNGLTGMEADPKLTPISSAEGAIFGQEKESEA,not soluble
17,MSLGRMFGTDGVRGIANKELTAELAYRLGRAGAYVLTNETHKPKILVGMDTRISGDMLEAALVSGILSVGAEAVCVGIVPTPAVAYLTRKYKADAGVVISASHNPVEYNGIKFFDAKGYKLSDNLEDEIQKIIESDFEGVPLPTGESVGRKVVEESAEEDYIKFAKSTIGTDLKGMKIALDCANGAAYKTAVKTFRELGAQVTVINNDPDGININCNCGSTHPEELMDYVVKKNCDLGLAFDGDADRCLAVDEKGNLIDGDFIMAICGKYLKDKGELHKDVVVVTVMSNMGLFLALDKANIKTVKTKVGDRYVLEEMLKEGYKLGGEQSGHIIFLDYNTTGDGLVTALKICSIVKESRKTLSKLASIMHKLPQVLANAKVPNNKKDIYLEDKEISDEIKKIEEELHGKGRVLIRPSGTEPLVRVMLEGEDQDRLNTLAHGLAELIEKKANEGHHHHHH,soluble
